The results in this text go back to publication PMC8341956.

This experiment deals with nucleosome core particle (recombinant Xenopus laevis histone octamer on 147 bp 601 DNA) (Xenopus laevis). As to the kind of experiment: native gel or EMSA; HMGN1 variants incubated with AlexaFluor488-labelled nucleosome cores (50 nM) at 0.5:1, 1:1 and 2:1 HMGN1 per nucleosome; 10 mM Tris pH 7.5, 25 mM NaCl, 25 mM KCl, 0.2 mM DTT, 4% sucrose, on ice 20-30 min; 5% native PAGE, 0.5x TBE, 4 °C. On the technique in general: In EMSA bound probe runs differently from free probe, usually more slowly.

On to “semi-synthetic unmodified HMGN1 (natural protein)”, for which the stoichiometry N (HMGN1 molecules per nucleosome) was 2.
For “full-length recombinant HMGN1 (HMGN1_1–99, unmodified) (natural protein)” the value was 2.
